Test results as given in US7285654.

Tested on: T1, GST-IκBβ (1-54)
T1 sequence: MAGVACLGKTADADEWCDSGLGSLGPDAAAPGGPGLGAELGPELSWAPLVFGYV

In the case of “IKK signalsome (stimulus-inducible IκB kinase complex) immunopurified from TNFα-stimulated HeLa cells”, the “phosphorylation of substrate (kinase assay)” value is reported as “the kinase phosphorylated GST-IκBβ (1-54), albeit with lower affinity”.
